The source of these data is patent publication US11912755B2, “Endostatin fragments and variants for use in treating fibrosis” (iBio, Inc., priority 2015, dated 2024).

Series [1] concerns human primary lung fibroblasts. Briefly: Western blot of FN, Col1α1 and α-SMA in primary lung fibroblasts. The format is cell-based. To be noted: normal human lung fibroblasts; TGF-β 24 h, then 5 μg/ml for 48 h. Here is the method: Primary Fibroblast Culture. Human primary lung and skin fibroblasts were cultured. The explanted lungs of normal organ donors, patients with SSc or IPF, and clinically involved skin of SSc patients, a morphea patient and healthy donors were used for primary fibroblast culture. Approximately 2-cm pieces of peripheral lung and skin were minced and fibroblasts were cultured in Dulbecco's modified Eagle's medium (DMEM; Mediatech, Herndon, Va.) supplemented with 10% FBS, penicillin, streptomycin, and anti-mycotic agent, as previously described (Feghali et al., Arthritis Rheum 1999; 42:1451-7). All the cells were used between passages 3-6.
Western Blot Analysis. Cellular lysates were obtained from cultured fibroblasts as previously described (Pilewski et al., Am J Pathol 2005; 166:399-407). Briefly, 2.0×10^5 primary fibroblasts were cultured in 35-mm wells in 0.5% FBS-containing medium supplemented with 10 ng/ml of human recombinant TGF-β or PBS as vehicle control for 24 h, […] In some experiments, endostatin peptides were used without TGF-β stimulation. Cellular lysates were analyzed by Western blot. Signals were detected following incubation with horseradish peroxidase-conjugated secondary antibody and chemiluminescence (Perkin Elmer Life Sciences, Inc., Boston, Mass.). The intensity of individual bands with expected molecular sizes was semi-quantitatively analyzed using the image/J® software available at on the Internet (/rsb.info.nih.gov/ij/index.html), and normalized to individual GAPDH intensity.
(Immunoblotting shows a protein as a band on a membrane.)

Series [2] has as its system TGF-β-induced dermal fibrosis in mouse skin. Briefly: In vivo TGF-β-induced dermal fibrosis in mouse skin. To be noted: 10 μg/ml intradermal with TGF-β 10 ng/ml; one week. How it is done: In Vivo Mouse Experiments. CB57BL6/J male mice were purchased from The Jackson Laboratory (Bar Harbor, ME). Human rE (10 μg/ml) or Endostatin peptides (10 μg/ml) in combination with TGF-β (10 ng/ml), or TGF-β alone were injected intradermally on the back of mice in a total volume of 100 μl 1×PBS. Mice were injected in two different skin sites and sacrificed one week post-injection. Skin surrounding the injection site was harvested and fixed in 10% formalin prior to embedding in paraffin.
Measurement of Skin Dermal Thickness. Six μm sections of paraffin-embedded human and mouse skin tissues were stained with hematoxylin and eosin (H&E). In some experiments, sections were stained with Masson trichrome which identifies collagens. Images were taken on a Nikon Eclipse 800 microscope. The thickness of the dermis was measured in 6 random fields of each section using the image/J® software. Data are shown in arbitrary units.
E4, a peptide representing the carboxy terminus of human endostatin, can attenuate fibrosis triggered by multiple fibrogenic factors. The anti-fibrotic effects of E4 can be detected whether administered concomitantly with or following the fibrogenic trigger. The efficacy of E4 was confirmed in […] pre-clinical models of fibrosis: a) bleomycin-induced dermal fibrosis in vivo in mouse skin, b) TGF-β induced dermal fibrosis in mouse skin, and c) bleomycin-induced pulmonary fibrosis. E4 peptide or a control peptide (E1; representing the amino terminal region of endostatin) were administered at the same time as TGF-β or bleomycin or 3-4 days following TGF-β or bleomycin. Mice were sacrificed one and two weeks after TGF-β-initiation of dermal fibrosis, and two and three weeks after bleomycin-induced pulmonary fibrosis. Two different modes of administration of the E4 peptide were also tested. It was confirmed that intraperitoneal and intratracheal administration was effective. The amount of E4 that was administered was 10 μg/ml in a total volume of 100 μl for skin and IP injections and 50 μl for IT administration.
For these studies, fibrosis was assessed by measurement of dermal thickness on H&E skin sections (skin), assessment of collagen levels by Masson Trichrome staining (skin and lung), and measurement of collagen levels by Sircol assay (lung). Furthermore, to confirm the mechanism by which E4 exerts its anti-fibrotic effects, the production of extra-cellular matrix (ECM) components, the levels of enzymes that promote matrix stabilization and thus accumulation and levels of those that degrade ECM components, and levels of transcription factors downstream of the pro-fibrotic triggers were evaluated. Results were assessed using the unpaired t test and the 3-way ANOVA (for the ID1 data).

Series [3] is described as follows: Solubility of Ig Fc fusions to E3 in plant lysates. It is filed as physicochemical. As to conditions: plant lysate, non-denaturing (normal) grind buffer. The source says:
For IgG Fc expression, clarified plant lysates were run on a Western blot (Genway chicken E3 antibody). Fusions included E3 (C67A) linked to either the N-terminus of the hinge+Fc domains of IgG2, IgG3, or IgG4, or to the C-terminus of the hinge +Fc domain of IgG1. […] The E3-IgG1 fusion expressed well. The non-reducing samples all appeared to form large structures, although perhaps not as large as the END-55 (iBioCFB03) BMW multimers (FIG. 24).
For IgA/M expression, clarified plant lysates were ground in either denaturing (total) or non-denaturing buffer (soluble) and run on a Western blot (Genway chicken E3 antibody). Fusions contained E3 (C67A) linked to the N-terminus of the hinge+Fc domains of IgA1, IgA2, or IgM. The IgA1 and IgA2 fusions were insoluble in normal grind buffer. The IgM fusion had very low expression. J-chain co-expression had no obvious effect.

For series [4], the system named is bleomycin-induced pulmonary fibrosis. Briefly: Bleomycin mouse model of pulmonary fibrosis, plant-made E3 variants oral or IV. It is filed as in vivo. As to conditions: oral treatment. An excerpt:
Peptides were expressed in plants using the IBIOLAUNCH™ gene expression platform. C57BL/6 mice were given bleomycin intratracheally in conjunction with END-55 (also referred to herein as E3-Fc (C67A) and CFB03) intravenous (IV) administration, or followed by IV administration of END-55 eight days after bleomycin. The mice were sacrificed at day 12 and lung samples were taken for both hematoxylin and eosin (H&E) staining and hydroxyproline assay.
Pulmonary fibrosis was induced in mice using bleomycin. Animals were treated orally with E3 variants or phosphate buffered saline (PBS). Lung histology was examined, showing that orally delivered E3 variants (E3-6His-KDEL (SEQ ID NO:19) and Expanded E3-6His-KDEL(SEQ ID NO:19)) prevented bleomycin-induced pulmonary fibrosis.
For the experiments shown in FIGS. 21 and 22, pulmonary fibrosis was again induced in mice using bleomycin. […] Hydroxyproline content was measured in the lung.
To evaluate tissue fibrosis/collagen deposition, a hydroxyproline quantification assay was performed. […] Aliquots were transferred to 96-well plates, and absorbance was measured at 570 nm. Collagen content was calculated by comparison with a standard curve generated with cis-4 hydroxy-L-proline (Sigma-Aldrich), using the conversion factor of 1 μg hydroxyproline corresponding to 6.94 μg. […]

Turning to “E1: synthetic peptide, amino acids 1-45 of SEQ ID NO: 2 (human endostatin) (HSHRDFQPVLHLVALNSPLSGGMRGIRGADFQCFQQARAVGLAGT; listed as Homo sapiens)”, the “FN and Col1α1 levels” value in series [1] is on record as “no effect”. Besides, in series [2], the “TGF-β-induced dermal fibrosis (dermal thickness)” value is “did not alter”.

Take “E2: synthetic peptide, amino acids 71-115 of SEQ ID NO: 2 (IVNLKDELLFPSWEALFSGSEGPLKPGARIFSFNGKDVLTHPTWP; listed as Homo sapiens)”: the “TGF-β-induced dermal fibrosis (dermal thickness)” value in series [2] is on record as “significantly reduced”.

On to “IgG1_Fc-E3_C67A: SEQ ID NO: 29, C-terminal fusion of E3 C67A to IgG1 Fc”, for which the solubility entry in series [3] is “soluble”.

B1: E3_C67A-Fc_IgA1: SEQ ID NO: 25 (protein)
chain: MGKMASLFATFLVVLVSLSLASESSASYCETWRTEAPSATGQASSLLGGRLLGQSAASCHHAYIVLAIENSFMTVPCPVPSTPPTPSPSTPPTPSPSCCHPRLSLHRPALEDLLLGSEANLTCTLTGLRDASGVTFTWTPSSGKSAVQGPPERDLCGCYSVSSVLPGCAEPWNHGKTFTCTAAYPESKTPLTATLSKSGNTFRPEVHLLPPPSEELALNELVTLTCLARGFSPKDVLVRWLQGSQELPREKYLTWASRQEPSQGTTTFAVTSILRVAAEDWKKGDTFSCMVGHEALPLAFTQKTIDRLAGKPTHVNVSVVMAEVDGTCY
modifications: E3_C67A-Fc_IgA1 fusion
As to B1, the solubility entry in series [3] is given as “insoluble”.

B2: E3_C67A-Fc_IgG3: SEQ ID NO: 23 (protein)
chain: MGKMASLFATFLVVLVSLSLASESSASYCETWRTEAPSATGQASSLLGGRLLGQSAASCHHAYIVLAIENSFMTELKTPLGDTTHTCPRCPEPKSCDTPPPCPRCPEPKSCDTPPPCPRCPEPKSCDTPPPCPRCPAPELLGGPSVFLFPPKPKDTLMISRTPEVTCVVVDVSHEDPEVQFKWYVDGVEVHNAKTKPREEQYNSTFRVVSVLTVLHQDWLNGKEYKCKVSNKALPAPIEKTISKTKGQPREPQVYTLPPSREEMTKNQVSLTCLVKGFYPSDIAVEWESSGQPENNYNTTPPMLDSDGSFFLYSKLTVDKSRWQQGNIFSCSVMHEALHNRFTQKSLSLSPGK
modifications: E3_C67A-Fc_IgG3 fusion
Regarding B2, the solubility entry in series [3] is listed as “soluble”.

B3: E3-6His-KDEL: SEQ ID NO:15; secretory leader peptide, E3, tagged with 6X His and KDEL sequence; plant-made (protein)
chain: MGKMASLFATFLVVLVSLSLASESSASYCETWRTEAPSATGQASSLLGGRLLGQSAASCHHAYIVLCIENSFMTHHHHHHKDEL
modifications: amino acid sequence including a secretory sequence, a portion of human endostatin, and a peptide tag
notes: plant-made
Regarding B3, in series [4], the “bleomycin-induced pulmonary fibrosis, lung histology” value is reported as “prevented”.

B4: Expanded E3-6His-KDEL: SEQ ID NO:17; E3 extended by 17 amino acids from Collagen XVIII, S→Y, C67A, ASK, 6X His KDEL (protein)
chain: MGKMASLFATFLVVLVSLSLASESSAQKSVWHGSDPNGRRLTESYCETWRTEAPSATGQAYSLLGGRLLGQSAASCHHAYIVLAIENSFMTASKHHHHHHKDEL
modifications: amino acid sequence including a secretory sequence, a portion of collagen XVIII, a portion of human endostatin having a C67A mutation, and a peptide tag
notes: E3 extended by 17 amino acids from Collagen XVIII, S→Y, C67A, ASK, 6X His KDEL
For B4, the “bleomycin-induced pulmonary fibrosis, lung histology” value in series [4] was “prevented”.

B5: E3_C67A-Fc_IgA2: SEQ ID NO: 26 (protein)
chain: MGKMASLFATFLVVLVSLSLASESSASYCETWRTEAPSATGQASSLLGGRLLGQSAASCHHAYIVLAIENSFMTVPCPVPPPPPCCHPRLSLHRPALEDLLLGSEANLTCTLTGLRDASGATFTWTPSSGKSAVQGPPERDLCGCYSVSSVLPGCAQPWNHGETFTCTAAHPELKTPLTANITKSGNTFRPEVHLLPPPSEELALNELVTLTCLARGFSPKDVLVRWLQGSQELPREKYLTWASRQEPSQGTTTFAVTSILRVAAEDWKKGDTFSCMVGHEALPLAFTQKTIDRMAGKPTHVNVSVVMAEVDGTCY
modifications: E3_C67A-Fc_IgA2 fusion
For B5, the solubility result in series [3] was “insoluble”.
